Assay: soluble fraction after stress (log2 fold change); higher = more stays soluble; pooled small domains, quantitative proteomics
Conditions: stress: 50 degC
How it was run: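 Pooled custom libraries of small protein domains were each held under stress at 50°C. The read-out, high-throughput quantitative proteomics, tracked how much of each protein stayed soluble. This is reported as a base-two log fold change used to indicate aggregation propensity. Higher values mean more protein remains in solution.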

Sequence	soluble fraction (log2)
HMFAKVEGITGDILDKLQQQRGFLALSDKSSPEAIYDTFGVSKKVFKQAIGTLFKQQKISIEAEGIRLV	-0.709
HMFASSADGVEGLKTNPIFASTKEKSDAGKLLYTRYLAIGIFRMLELAKATDPKALEALVEAGG	0.0895
HMFDDEELDTFAGRQSDSYDQQEVEQFSDVLHTMRQDEVQAWWRSLTLRGISLPDELKDEVIML	-0.538
HMFDDLSTNLRDLAHNYIEKYSPSKQQLKVFLLKKYLMKFKGSKTKKEISEIIDKIISNLEENKYLNDEL	0.0632
HMFDFMVLGQAIKKARESKEMTREQLAEILDVAPRHIQSIENEGQYPSFPLFIRLVTMFNISVDQY	-1.92
HMFDGNIKIVEDAFSVTIVARGTEVKISGDPENVYLASKTVEGLLTLIDKGEAITDQRVHYVIGLVREG	-2.65
HMFDGTLSIYPNPSKGIFNLDLLNVKDGEYTITVDNLLGQEVYSEIRNVINSSSKTLDLSNLTKGV	-0.173
HMFDLKKIYGTILDETKSSLLLSTDDGREVQIIKTDGTEVLASGLGVYVEVAYRDETPDGYPIALTI	-0.193
HMFDTVKIGKRIAELRKKRDMTQFELADRLGISYQAVSNWERGNSMPDIAKLPELAEIFGVTVDEILG	0.161
HMFEARNTTFSEDGKTITETYGVKRIETEFVSDSTIVQKLYDNDVLTKTKTITFSADGLSIKEDV	0.0154
HMFEDYNELDEYLETRFIPTYVLLKQRKNANGEIDHFPSIRLQHIMALKLSEAELEHVMNYLKEKNIRVG	-0.325
HMFEKVKLTLTIPSKYSGSTYSALRNRMNKFSKEEWLSNGDLKIEIEVTGGQKTDIYTLINKLTNGEAIIE	-0.141
HMFELDELDLVILKNLANGLSKKQIRVKLKKMDLRPNSESAIDKRVSKLFDEFGAKNSTELVAKLIREGL	-2.55
HMFELTVGTPIRVIREPYFGKLGTVTELPAQLMVVESGTEVRVLKAKIEGEGEVLVPRANVEIIATG	-0.0828
HMFELVKISENIPIRDLAETLKTTPNEIIKELMVFGVLANINQTLNFDLASKVADKLGFEVELL	-0.246
HMFEMPTSLVRTLSAIAIKQPVMQSEIIKLRGAGAYDHIKELIIRELVHRKEEGRSPILTTTKKFQEYFRL	-2.33
HMFERIYVFSRDGDIIELPKGSTVLDFAYHVHTHVGNRAQAARVNKRYVPLTYQLKTGEQVEIIIS	-1.2
HMFEYDEEEYEKLGPNADLTIKSMTDWGQSLVRKGVWSESDFEEFKIMGGTAQGLRALQKVRSYY	-0.451
HMFFAGLSPEAARTLDSLPLHSWSSVEQIARQAGLNIETVRKELGLLELSGIALSRQGRFRRA	-0.549
HMFFFILNKGAKSGGEITHAVLNGSIVSKPAGWDAFHGLVLAKEKLSSEEIQRQMKELGVEMEIVPL	-0.58
HMFGDQMQSYLSRLSQIDVDIIALKYGDNFTYREIGLILEMSEDSVRQRAVRARKKLETMIQKG	-3.1
HMFGEDNLKSKEIKERVTEVAKHADDPVWIEARRKWKDENPDQNVKDYQQAYISGRIHELPWDVSYI	0.142
HMFGEKEFYQWIGKTAGEKFSGLPAAVIKSLYKYWREYNLSEEDIMGFIRQTELLPKRTPLDVELFFEK	-0.456
HMFGELTPDTAKRFLLTAREQEMASLIAQGLTNKEIAFRLGISEATVRTHIYNLFQKVGVQSRIELLNVLH	-0.289
HMFGNTGETSGTGVAFTRSPVDGENKIFGEFLVNAQGEDVVAGIRTPQPISEMEQAFPEVYSKFESVAEIL	0.0862
HMFHDALVSFAERRVIFMKELVNRLNEARKAYYEGESIMSDKEYDNLYDKLVKMELTTGVVLPNSPTEEVG	-1.37

Sequence	soluble fraction (log2)
HMFIEHSKYKLSFKYNQLGKISNVINSNNGIIMDKHFDQNITLLAKLTENTFQEIIKHFPTIIIKRL	-3.19
HMFIEPPSLEELERRLRGRGTETDDVVDMRMRTALVELSQKMEYDYRLVNDDLDEATRQLVAYVNEIAEQ	0.0568
HMFIPMTDAQRHLFANKLAKLPELSEYSRGTESYEDFAIRIADMLLEPPKFRMFYPLLEQLGF	-1.88
HMFIVTDQMQRVLDYITEKEKATNNDLEELLGVKSTRIYTITRKLIQHNLIIPVGKGKNKYYIL	-0.79
HMFKDVTVPSVINKTEAEATNMLKGLNLVVSVEYEENANKSDGIVTAQNVNANKVIKEGETVTITVNKQP	0.00765
HMFKNWMPFDEARIFVRKLKFNSHDEFRKYLKANEINIPSKPWSTYKGKGWVSIGDFLGTHR	-2.82
HMFLPGETFDVKIVKIGEGENQGVGYLDDGTMIVIENGRDHLNELARVIVTRVLQNSAGQMIFSDYEE	-2.27
HMFLTPLEETRLAIEEVVIAKNIAIDLFPRESAIRKQQHELIYHYHLKGLTVGTEKNKRLRIFPRGY	-0.000251
HMFLTSDEGKIMQLLEDKQRITRKDAQELLGVSQSTAGRILKTLVDNGQITQRGGGRTTRYELIK	0.184
HMFMKNTEVALAIKGKFSNQTTITSKELVLFLSDLFPELSNKTIPWKINQLKAENLIYQTGRGIYTFN	-2.57
HMFMMVAGHLQIKNEKYYMVLELRTEQGERKTKWIGTGLAVKGNKRRAEAMLEETRTKYLSPV	-1.95
HMFMPGTIIKQFRELRNYSQDYVSRKMGISQNAYSKIENNITQLTVTHVKQLSSILDVPIVELLR	-3.32
HMFMSDDDIRILVKEWLQSQNRKSYQLAEEIGIRPQTFYAQMSVRKISANTKKALSRIIPGL	-0.86
HMFMSKTAMVAIISEADKYGLFNIPEGLSVEKTADEIFEGHIEVDFDKLKNELDFVYKNEALEKQFQEN	-0.534
HMFNPEQDPKQLTGRERAVADLIGLGANNAEIAIRLSMSERTVKAHLTSIFQQLNVRDRVQLALVMNQL	-0.585
HMFPASQPVPTDLNQIVRAGLEVFSGRLEGIDVRVSLEPELPRVNVDPEHFKRIVVNLVDNAAEAMQNS	-0.0549
HMFPATAPQLKAVHAILGKQGISDELDKLARVNEWLVGLNKEPVAAISELDKHTTSGLIDHLQGELNE	0.282
HMFPDLSPEQQRIVDVLTKSNDLQLNQLSVKTGIPIGDITSILFQMEMMGVVKPMAGGNYHLL	-1.36
HMFPDLTEDEQLIVDVLQRTGDLQINSLIVEANIPVNKMSEILFELEMKGVIRTLAGGVYQLL	-1.46
HMFPDRLRELRKGRNITLETLAEEMNKHLEPGQKPNTAAQIGNWERGDRSPSYIEVRKLADFFNVSMDFL	-0.636
HMFPELNAEETQVVQLLQKQTEGMQVNSLVVESNIPITRMSGILFELELKGIIRNYAGGVYKL	-2.16
HMFPELSEEAKVIVDALSKENDQQLNVLIANTGMAVGTMQAKLFELEMQGVVKPLAGSVYHLM	-0.0727
HMFPELTDDEQLIVSTLAKTNDMQINMLAVRTGIPVQRMSALLFSLEMKGVVKMYAGGTYHLL	-1.05
HMFPNQLLISRLSNQLSASERFAAVSSIAQLKNIDYDVLHVLVHTMNSDPNSNVRLAALEALSR	-0.529
HMFPQQGEIRQGVIASITPDQILVNVGTKSEGIISGKELEAISKSERDSLNVDQKIAVYILDPEDSNG	0.259
HMFQNPSQVVTTRVGELRAAIPTAQQGRITMGVAVVEDANSVRSVLISTSEPRGYLRPGVTLGPGETMV	0.0203

Sequence	soluble fraction (log2)
HMFQPFFENLRKASIPVSLREYLTFLEGMKKGLVTYDIEAFYFLARAAMVKDERNIDKFDRAFSATFKG	-0.287
HMFQTAADVAYRIISQKILDGEFPPGMKLSRRKMAEVTSVSVIPVIEALKKLEEDGLVESKPQWGSFVTI	-1.27
HMFQYEKIKDYILTGLEEGTWQAGDKIPSEAELVMSLNVSRMTVNRAVRELANSGLLVRIPGAGTFVATE	-0.575
HMFSIDRNIRRLRKEAGLTQEELAQKLFVTRQTISLWELGKVHPDLETLQKLAEQFQVDLLQVLYGPE	-2.17
HMFSLDMDRLVRPGFMASGNVTFSDGVTGKWALDQMGRLALETAQKGYQPSPADVQAFQRELQQQLQRQG	-0.0885
HMFSPTKLKEKRESQGLSQSQLASSLGISRASYFNWESGKTKPNQNNLSKLSEILNVDPRYF	0.355
HMFSSVSVPAELSNQRFDKVVAELTPDLSRSKIKQLILLGKVLLNGEVTPPKQKVETGDEIEIFYTRQIE	-0.63
HMFTLDIGTIIRNRRLELNLTLEEIGNAVGVSKSTVQKWENGFISNMKRDKISALAKVLNINPVTLITGEY	-1.12
HMFTLNEIIGQKIRNARISAGLTLDELSKMTGISAAQLSSLETGYRRANIDTLYAIAKAIGIDVSNLLKY	-0.46
HMFTRFTVAQDGWTIGGFTAKEMAVSTAKQHAVDTGKPVTVVAHVAGGGSREAIFNSDGTNDKIWN	0.0601
HMFTYEETIGKSADVYLTIPALKAGKGKIIISVRGSVHELDAMTNNAEKISTGAVVKIVRIEHGNILLVEN	-1.63
HMFVEKDSIINKGNNSYNFVITDNNNKVLVEYNGLLPDLFKEEQGVVIEGRLKSDFIIHAFTVF	-0.209
HMFVGVDMAVKEEIGKEGVAFTDLRPAGKVSIGDDVYDAVSETGAFITRGTSVRVLKYQAGQVYVVK	-0.154
HMFVTFFHELKSAGVPVSLREYLTLMEAMDRDLASRRVEEFYYLARTALVKDERNLDKFDRVFGHVFKGL	-3.65
HMFWVESDVDFVDKTSAHNAIKENERVIGMYISYRLNGTWTTEQYVGIDTSKDNWENPDNWNIL	-0.308
HMFYLPEPLTEQELRILGMLLDGRSNPEIAAELFIAVGTAKWHVHNILQKLGVANRAQAIVKAHELGLT	-1.91
HMFYNELMNFIVYKDSQKIGKIVNINDKLPQPVFEVLINDKKFMVPIHDDFIEKIDKEKKSIHIVIPDGLL	0.0184
HMFYWTDLIGLDVINTADERLGKVVGLIETGANAVLRVMGDDQVERLLPFGSAVVLTVEKEAGQIRVEW	-0.89
HMGAARVTPLYNLRLREGPSTATARLDVVPRGTTLEVRAWDETGDWAQVEYRGQIGWIAAWLAEVEGEAP	-0.136
HMGADSFTGYTPIHKIDNPSDGINDGASYVVYFQKDGTDPTEFYKAVNANASTLAQLTSGTEYDLASSKKL	0.0305
HMGAEIRDKVRAALAGLNPRAAEIFVMRYFDGYGNREIARLLNTSWSTIAVTLHRTRAKLQKELK	-0.101
HMGAGDKQAQQASLMQIIALQKEGMALGLVEPKHLYHSFSKMIENAGFKDVQSFAVDPSTQQ	-0.0552
HMGAGEQMLPKVMFAEGDRVVHKVFGEGTVVTVDRPAQTYDIQFDKLRGTRRIMFRAELEGI	-0.554
HMGAGLDDLVRKSLHNAGLKADDNVVSWISGNLGSDRMVSRMELEKLVLFVAGQSEITLEDAQAVIGD	-0.305

From the domain aggregation screens of Martell et al. (2025)
